Source: PMC11076500, “Impact of distinct FG nucleoporin repeats on Nup98 self-association” (Nature Communications, 2024)
Changes are numbered by the printed parent chain. Numbers in names are those of the source.

B1: FG-repeat domain of human Nup98 (Nup98^FG; residues 1-384), wild type (protein)
chain: MFNKSFGTPFGGGTGGFGTTSTFGQNTGFGTTSGGAFGTSAFGSSNNTGGLFGNSQTKPGGLFGTSSFSQPATSTSTGFGFGTSTGTANTLFGTASTGTSLFSSQNNAFAQNKPTGFGNFGTSTSSGGLFGTTNTTSNPFGSTSGSLFGPSSFTAAPTGTTIKFNPPTGTDTMVKAGVSTNISTKHQCITAMKEYESKSLEELRLEDYQANRKGPQNQVGAGTTTGLFGSSPATSSATGLFSSSTTNSGFAYGQNKTAFGTSTTGFGTNPGGLFGQQNQQTTSLFSKPFGQATTTQNTGFSFGNTSTIGQPSTNTMGLFGVTQASQPGGLFGTATNTSTGTAFGTGTGLFGQTNTGFGAVGSTLFGNNKLTTFGSSTTSAPSFG
B2: Nup98^FG F102S mutant (protein)
chain: B1 chain with F102S
B3: Nup98^FG F228S mutant (protein)
chain: B1 chain with F228S
B4: Nup98^FG F319S mutant (protein)
chain: B1 chain with F319S
B5: Nup98^FG F102S/F319S double mutant (protein)
chain: B1 chain with F102S, F319S
B6: Nup98^FG(298-327) peptide (peptide, UniProt P52948 298-327, looked up)
peptide: TGFSFGNTSTIGQPSTNTMGLFGVTQASQP
notes: Forms amyloid fibrils; each fibril layer holds five peptides (four parallel, one antiparallel); source: synthetic peptide (solid-phase synthesis, Genscript)

biological target: P52948; test: 1D 1H NMR (loss of the signal of soluble protein); 100 μM protein in 50 mM sodium phosphate, 1 mM TCEP; pH raised from 3 to 7 with NaOH, measured immediately (deadtime ~5 min); 5 °C; amide region integrated; self-association into particles not detectable by NMR; details: other: 1D 1H NMR (loss of the signal of soluble protein)

Protein	percent of the protein aggregated just after changing the pH to 7
B1	67 % of the wild-type protein forms aggregates
B2	only 28 and 23 % of the protein aggregated, respectively
B3	in the F228S mutant 46% of the protein aggregates
B4	only 28 and 23 % of the protein aggregated, respectively
B5	only 28 and 23 % of the protein aggregated, respectively

Biological target: the molecule itself
Test: cryo-EM structure; amyloid fibrils from 2 mM peptide in water, 25 °C for one day; helical reconstruction, 2.67 Å; five peptides in each layer
Details: not given

Protein	binding result
B6	binds
